Common to all, as to settings: 20 mM Hepes pH 7.5, 100 mM KAc, 200 mM KCl, 3 mM MgCl2, 1 mM TCEP; 37 C, 20 min; RNA folded in 20 mM Hepes pH 7.5, 150 mM KCl, 5 mM MgCl2
Data set [1] deals with 40S ribosomal subunit (HeLa or RRL, used interchangeably) (Homo sapiens or rabbit). Put plainly: EMSA.
Data set [2] relates to 80S ribosome. Kind of data set: EMSA. On the technique in general: In EMSA bound probe runs differently from free probe, usually more slowly.
For data set [3], the system named is 40S ribosomal subunit (HeLa) (Homo sapiens (HeLa)). Put plainly: EMSA.
Data set [4] has as its system 40S ribosomal subunit (RRL) (rabbit (reticulocyte lysate)). Put plainly: EMSA.
For data set [5], the system named is eIF3 (preparation not specified). Kind of data set: filter binding.
Data set [6] deals with 40S ribosomal subunit (HeLa or RRL, used interchangeably);eIF3 (preparation not specified) (Homo sapiens or rabbit;Homo sapiens?). Kind of data set: filter binding.
The subject of data set [7] is 40S ribosomal subunit (HeLa or RRL, used interchangeably) (Homo sapiens or rabbit). Kind of data set: filter binding.

HCV 3'UTR genotype 2a displayed a Kd in data set [1] of 3.5 nM.
Consider HCV 3'UTR genotype 1b, for which the Kd in data set [1] is 4.7 nM.
The substance “UAGACGAGCGGCCCUAAACAACACUCCAUAACAUUUUUUUUUUUUUUUUUUUUUUUUUUUUUUUUUUUUUUUUUUUUUUUUUUUUUUUUUUUUUUUCUUUCUUAUCUGUCUAUCCCUUAGACUCCUUCUUUGGUGGCUCCAUCUUAGCCCUAGUCACGGCUAGCUGUGAAAGGUCCGUGAGCCGCAUGACUGCAGAGAGUGCUGAUACUGGCCUCUCUGCAGUUCAUGU [HCV 3'UTR genotype 6b]” had a dissociation constant (Kd) in data set [1] of 6.7 nM.
In the case of HCV 3'UTR, the Kd in data set [2] is 11.8 nM; in data set [3], 1.8 nM; in data set [4], 5.4 nM; in data set [5] it was 8.9 nM; in data set [6], 1 nM; in data set [7], 1.8 nM.
In turn, HCV 3'UTR genotype 3a yielded a Kd in data set [1] of 3.7 nM.
“AGGUUGGGGUAAACACUCCGGCCUCUUAAGCCAUUUCCUGUUUUUUUUUUUUUUUUUUUUUUUUUUUUCUUUUUUUUUUUCUUUCCUUUCCUUCUUUUUUUCCUUUCUUUUUCCCUUCUUUAAUGGUGGCUCCAUCUUAGCCCUAGUCACGGCUAGCUGUGAAAGGUCCGUGAGCCGCAUGACUGCAGAGAGUGCUGAUACUGGCCUCUCUGCAGAUCAUGU [HCV 3'UTR genotype 1a]” gave a Kd in data set [1] of 6.7 nM.

Usually Kd stands for the free concentration of one partner at which half of the binding sites on the other are occupied at equilibrium, for simple one-to-one binding. Low readings indicate tighter binding, high ones weaker binding.

These data come from publication PMC3763534.
